In US20190161753:

Target: T1, The other proteins of the P. furiosus Cmr effector complex (Cmr1, Cmr3, Cmr4, Cmr5, Cmr6, with crRNA)
T1 chain 1: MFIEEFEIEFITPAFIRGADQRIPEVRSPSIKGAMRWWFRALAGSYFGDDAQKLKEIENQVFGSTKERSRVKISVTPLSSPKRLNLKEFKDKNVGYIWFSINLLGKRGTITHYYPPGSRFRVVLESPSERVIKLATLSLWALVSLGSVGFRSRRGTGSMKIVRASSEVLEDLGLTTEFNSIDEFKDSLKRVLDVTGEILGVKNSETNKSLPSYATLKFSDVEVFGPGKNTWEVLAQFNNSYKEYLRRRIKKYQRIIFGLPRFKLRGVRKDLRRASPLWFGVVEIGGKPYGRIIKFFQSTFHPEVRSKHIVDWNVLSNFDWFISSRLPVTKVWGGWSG
T1 chain 2: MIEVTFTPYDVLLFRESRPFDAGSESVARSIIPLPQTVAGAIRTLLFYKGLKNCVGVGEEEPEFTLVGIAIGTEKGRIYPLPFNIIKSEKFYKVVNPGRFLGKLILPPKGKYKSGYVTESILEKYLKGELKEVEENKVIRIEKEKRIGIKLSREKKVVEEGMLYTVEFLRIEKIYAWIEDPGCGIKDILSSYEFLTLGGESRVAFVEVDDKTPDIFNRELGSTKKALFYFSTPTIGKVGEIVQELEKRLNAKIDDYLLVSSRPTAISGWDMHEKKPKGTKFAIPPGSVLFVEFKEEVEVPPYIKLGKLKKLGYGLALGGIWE
T1 chain 3: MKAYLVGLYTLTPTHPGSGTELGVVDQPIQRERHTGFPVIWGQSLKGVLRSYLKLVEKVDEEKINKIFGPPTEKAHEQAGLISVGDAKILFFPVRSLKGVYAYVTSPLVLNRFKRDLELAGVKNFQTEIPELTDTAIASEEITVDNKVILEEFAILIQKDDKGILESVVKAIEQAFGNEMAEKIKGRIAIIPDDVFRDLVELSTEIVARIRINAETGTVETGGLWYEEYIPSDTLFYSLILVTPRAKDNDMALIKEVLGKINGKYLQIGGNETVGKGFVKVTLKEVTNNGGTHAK
T1 chain 4: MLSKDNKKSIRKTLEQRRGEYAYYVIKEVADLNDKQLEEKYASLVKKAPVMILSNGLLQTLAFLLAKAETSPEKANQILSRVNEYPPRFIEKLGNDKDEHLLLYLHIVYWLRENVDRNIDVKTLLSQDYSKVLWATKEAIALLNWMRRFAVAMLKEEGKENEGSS
T1 chain 5: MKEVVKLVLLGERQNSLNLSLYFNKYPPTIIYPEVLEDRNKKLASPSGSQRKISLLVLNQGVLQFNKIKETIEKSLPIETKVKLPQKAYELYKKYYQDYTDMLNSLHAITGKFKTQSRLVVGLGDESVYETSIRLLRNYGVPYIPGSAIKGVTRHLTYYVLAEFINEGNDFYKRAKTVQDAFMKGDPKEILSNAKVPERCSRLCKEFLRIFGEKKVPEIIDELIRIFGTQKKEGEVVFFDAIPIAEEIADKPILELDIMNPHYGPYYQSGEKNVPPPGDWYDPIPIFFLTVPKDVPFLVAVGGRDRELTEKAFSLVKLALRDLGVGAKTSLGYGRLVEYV

B1: Pyrococcus furiosus Cmr2 protein, wild type (PF1129) (protein)
chain: MVNIKEKLFVYLHDPPDKALKIENHEERSKKILSSGNIQYSRTDKVKQADALSSKTQRFIIRTKENKEPVIDFLGRSSGKYFHVGYPVFIHPISTEIKRYETLEKYIDLGRSNRGERFVNEFLERVSKLEGDVLKEVFEDASNKFKGEESKQWAYIWQFYPVKLKEGVKEFAKSELKLKEEEAEKFAEEFVNLPADTRFPDHAIWTHLDLTSALSVKDPTLLRIKIVPVQPFIANSRKQLDLWASSHLLSMLMYKALEVIVDKFGPEHVIYPSLRDQPFFLKFYLGENIGDEILVANLPNKALAIVSGKEAEKIEEEIKKRIRDFLLQLYREAVDWAVENGVVKVDRSEKDSMLKEAYLKIVREYFTVSITWVSLSEKEDIYQVTENAGLSDEDVKKWLKFAEKKENSRVLERIAIYPLLVKILDSLGERKVTEERFEKSEQLKGWKCHVCGENLAIFGDMYDHDNLKSLWLDEEPLCPMCLIKRYYPVWIRSKTGQKIRFESVVDVALLYKNWRKIFDEKYGKDLVSKAREVSEDFVKDNMLVDSDLYYSSTWESGLSKKLKNKKEIDEEKVKEVVDFLNAAYKEIGNPPKYYAILVMDGDDMGKVISGEVLGEISTRIHPNIRDYVEIPEAKYYSTPQVHVAISQALANFSIREVRSVVKDEGLLIYAGGDDVLAILPVDKALEVAYKIRKEFGKSFENGSLLPGWKLSAGILIVHYKHPLYDALEKARDLLNNKAKNVPGKDTLAIGLLKRSGSYYISLVGWELIRVFYNSELRKKLLEEKGGVGKRFIYHVLREVDTWPKVGIDEMLKFEVIRHIRGRNKEETKELREKIYGEIKDLLEHVRGNNEVEKVRGLFTFLKIITDAEVFP
B1 was tested, and the “ssDNA nuclease activity (cleavage of 5' radiolabeled ssDNA oligo, denaturing PAGE)” value was “The reconstituted Cmr complex (including Cmr1-6 and crRNA) displays very little ssDNA nuclease activity in comparison with approximately equimolar concentrations of Cmr2 alone”.
